This is an account of results in the supplement of paper PMC5998384.

In series [1] the test system is HeLa Kyoto. Kind of series: solubility in G1/S (NP-40 vs SDS abundance) (log2 ratio); higher = more soluble. Particulars: cell cycle stage: G1/S.
Series [2] concerns HeLa Kyoto. Kind of series: melting temperature (median over replicates), in situ; higher = more thermally stable.
Series [3] concerns HeLa Kyoto. Kind of series: solubility change mitosis vs G1/S (difference of NP-40 vs SDS log2 ratios) (log2 ratio difference); higher = more soluble in mitosis.
Series [4] relates to HeLa Kyoto. Put plainly: thermal stability score vs G1/S (z-score of summed log2 fold changes over temperatures); higher = more thermally stable than in G1/S.
Where [5] appears, read: cell cycle stage: early G1 (4.5 h after nocodazole release).
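Wherever melting temperature (median over replicates), in situ is given: HeLa Kyoto cells synchronized by double thymidine or nocodazole block, proteins quantified by TMT10plex mass spectrometry, three independent biological replicates.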
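Wherever solubility change mitosis vs G1/S (difference of NP-40 vs SDS log2 ratios) is given: synchronized HeLa Kyoto cells (double thymidine block for G1/S, nocodazole release for mitosis), protein amounts in NP-40 versus SDS lysates quantified by mass spectrometry, three biological replicates.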
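Wherever solubility in G1/S (NP-40 vs SDS abundance) is given: HeLa Kyoto cells arrested at G1/S by double thymidine block, proteins quantified by TMT10plex mass spectrometry in mild NP-40 versus SDS extracts, three biological replicates.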
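Wherever thermal stability score vs G1/S (z-score of summed log2 fold changes over temperatures) is given: synchronized HeLa Kyoto cells, proteins quantified by TMT10plex mass spectrometry, three biological replicates, mitosis taken 0.5 h after nocodazole release, G1/S directly after double thymidine block.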

As for “MDRMASSMKQVPNPLPKVLSRRGVGAGLEAAERESFERTQTVSINKAINTQEVAVKEKHARTCILGTHHEKGAQTFWSVVNRLPLSSNAVLCWKFCHVFHKLLRDGHPNVLKDSLRYRNELSDMSRMWGHLSEGYGQLCSIYLKLLRTKMEYHTKNPRFPGNLQMSDRQLDEAGESDVNNFFQLTVEMFDYLECELNLFQTVFNSLDMSRSVSVTAAGQCRLAPLIQVILDCSHLYDYTVKLLFKLHSCLPADTLQGHRDRFMEQFTKLKDLFYRSSNLQYFKRLIQIPQLPENPPNFLRASALSEHISPVVVIPAEASSPDSEPVLEKDDLMDMDASQQNLFDNKFDDIFGSSFSSDPFNFNSQNGVNKDEKDHLIERLYREISGLKAQLENMKTESQRVVLQLKGHVSELEADLAEQQHLRQQAADDCEFLRAELDELRRQREDTEKAQRSLSEIERKAQANEQRYSKLKEKYSELVQNHADLLRKNAEVTKQVSMARQAQVDLEREKKELEDSLERISDQGQRKTQEQLEVLESLKQELATSQRELQVLQGSLETSAQSEANWAAEFAELEKERDSLVSGAAHREEELSALRKELQDTQLKLASTEESMCQLAKDQRKMLLVGSRKAAEQVIQDALNQLEEPPLISCAGSADHLLSTVTSISSCIEQLEKSWSQYLACPEDISGLLHSITLLAHLTSDAIAHGATTCLRAPPEPADSLTEACKQYGRETLAYLASLEEEGSLENADSTAMRNCLSKIKAIGEELLPRGLDIKQEELGDLVDKEMAATSAAIETATARIEEMLSKSRAGDTGVKLEVNERILGCCTSLMQAIQVLIVASKDLQREIVESGRGTASPKEFYAKNSRWTEGLISASKAVGWGATVMVDAADLVVQGRGKFEELMVCSHEIAASTAQLVAASKVKADKDSPNLAQLQQASRGVNQATAGVVASTISGKSQIEETDNMDFSSMTLTQIKRQEMDSQVRVLELENELQKERQKLGELRKKHYELAGVAEGWEEGTEASPPTLQEVVTEKE [HIP1]”, the “solubility in G1/S (log2)” value with HeLa Kyoto [1] stood at 0.0989. Moreover, the melting temperature with HeLa Kyoto [2] (cell cycle stage: G1/S) came out at 49.9 °C; in the series on HeLa Kyoto [2] (cell cycle stage: mitosis) it was 50.2 °C. The “solubility change mitosis (log2)” value with HeLa Kyoto [3] turned out to be 0.0765. In addition, the thermal stability score in the series on HeLa Kyoto [4] (setting [5]) was 0.173; in the series on HeLa Kyoto [4] (cell cycle stage: mitosis), 1.11.
Regarding “MGDPSKQDILTIFKRLRSVPTNKVCFDCGAKNPSWASITYGVFLCIDCSGSHRSLGVHLSFIRSTELDSNWSWFQLRCMQVGGNASASSFFHQHGCSTNDTNAKYNSRAAQLYREKIKSLASQATRKHGTDLWLDSCVVPPLSPPPKEEDFFASHVSPEVSDTAWASAIAEPSSLTSRPVETTLENNEGGQEQGPSVEGLNVPTKATLEVSSIIKKKPNQAKKGLGAKKGSLGAQKLANTCFNEIEKQAQAADKMKEQEDLAKVVSKEESIVSSLRLAYKDLEIQMKKDEKMNISGKKNVDSDRLGMGFGNCRSVISHSVTSDMQTIEQESPIMAKPRKKYNDDSDDSYFTSSSSYFDEPVELRSSSFSSWDDSSDSYWKKETSKDTETVLKTTGYSDRPTARRKPDYEPVENTDEAQKKFGNVKAISSDMYFGRQSQADYETRARLERLSASSSISSADLFEEPRKQPAGNYSLSSVLPNAPDMAQFKQGVRSVAGKLSVFANGVVTSIQDRYGS [ARFGAP3]”, in the series on HeLa Kyoto [1], the “solubility in G1/S (log2)” value came out at 0.135. Besides, the melting temperature with HeLa Kyoto [2] (cell cycle stage: G1/S) came out at 51.3 °C; in the series with HeLa Kyoto [2] (cell cycle stage: mitosis) it was 51.4 °C. Further, the “solubility change mitosis (log2)” value in the series with HeLa Kyoto [3] was -0.125. Besides, the thermal stability score is -0.314 in the series on HeLa Kyoto [4] (setting [5]) and 0.332 with HeLa Kyoto [4] (cell cycle stage: mitosis).
For “MRWGLRPRGPGAAALATARSLWGTPRLPCSPGWQGATKRLLVRSVSGASNHQPNSNSGRYRDTVLLPQTSFPMKLLGRQQPDTELEIQQKCGFSELYSWQRERKVKTEFCLHDGPPYANGDPHVGHALNKILKDIANRFHMMNGSKIHFVPGWDCHGLPIEIKVLSELGREAQNLSAMEIRKKARSFAKAAIEKQKSAFIRWGIMADWNNCYYTFDGKYEAKQLRTFYQMYDKGLVYRSYKPVFWSPSSRTALAEAELEYNPEHVSRSIYVKFPLLKPSPKLASLIDGSSPVSILVWTTQPWTIPANEAVCYMPESKYAVVKCSKSGDLYVLAADKVASVASTLETTFETISTLSGVDLENGTCSHPLIPDKASPLLPANHVTMAKGTGLVHTAPAHGMEDYGVASQHNLPMDCLVDEDGVFTDVAGPELQNKAVLEEGTDVVIKMLQTAKNLLKEEKLVHSYPYDWRTKKPVVIRASKQWFINITDIKTAAKELLKKVKFIPGSALNGMVEMMDRRPYWCISRQRVWGVPIPVFHHKTKDEYLINSQTTEHIVKLVEQHGSDIWWTLPPEQLLPKEVLSEVGGPDALEYVPGQDILDIWFDSGTSWSYVLPGPDQRADLYLEGKDQLGGWFQSSLLTSVAARKRAPYKTVIVHGFTLGEKGEKMSKSLGNVIHPDVVVNGGQDQSKEPPYGADVLRWWVADSNVFTEVAIGPSVLNAARDDISKLRNTLRFLLGNVADFNPETDSIPVNDMYVIDQYMLHLLQDLANKITELYKQYDFGKVVRLLRTFYTRELSNFYFSIIKDRLYCEKENDPKRRSCQTALVEILDVIVRSFAPILPHLAEEVFQHIPYIKEPKSVFRTGWISTSSIWKKPGLEEAVESACAMRDSFLGSIPGKNAAEYKVITVIEPGLLFEIIEMLQSEETSSTSQLNELMMASESTLLAQEPREMTADVIELKGKFLINLEGGDIREESSYKVIVMPTTKEKCPRCWKYTAESSDTLCPRCAEVVSGK [IARS2]”, the “solubility in G1/S (log2)” value with HeLa Kyoto [1] was -0.0329. For the same sequence, the melting temperature in the series with HeLa Kyoto [2] (cell cycle stage: G1/S) and with HeLa Kyoto [2] (cell cycle stage: mitosis) was 54.9 °C each time. Further, the “solubility change mitosis (log2)” value in the series on HeLa Kyoto [3] is -0.0958. The thermal stability score in the series with HeLa Kyoto [4] (setting [5]) is -0.383; in the series on HeLa Kyoto [4] (cell cycle stage: mitosis), -1.42.
Consider “MSYGPLDMYRNPGPSGPQLRDFSSIIQTCSGNIQRISQATAQIKNLMSQLGTKQDSSKLQENLQQLQHSTNQLAKETNELLKELGSLPLPLSTSEQRQQRLQKERLMNDFSAALNNFQAVQRRVSEKEKESIARARAGSRLSAEERQREEQLVSFDSHEEWNQMQSQEDEVAITEQDLELIKERETAIRQLEADILDVNQIFKDLAMMIHDQGDLIDSIEANVESSEVHVERATEQLQRAAYYQKKSRKKMCILVLVLSVIILILGLIIWLVYKTK [STX12]”, for which the “solubility in G1/S (log2)” value in the series with HeLa Kyoto [1] is -0.121. The melting temperature in the series with HeLa Kyoto [2] (cell cycle stage: G1/S) came to 53.9 °C; in the series with HeLa Kyoto [2] (cell cycle stage: mitosis), 54.3 °C. For the same sequence, in the series with HeLa Kyoto [3], the “solubility change mitosis (log2)” value was 0.0226. Moreover, the values for the thermal stability score in the series on HeLa Kyoto [4] (setting [5]) and in the series on HeLa Kyoto [4] (cell cycle stage: mitosis) were -1.25 and -1.93, respectively.
“MAEFTSYKETASSRHLRFKLQSLSRRLDELEEATKNLQKAEDELLDLQDKVIQAEGSNSSMLAEIEVLRQRVLRIEGKDEEIKRAEDLCRLMKEKLEEEENLTRELKSEIERLQKRMAELEKLEEAFSRSKNDCTQLCLSLNEERNLTKKISSELEMLRVKVKELESSEDRLDKTEQSLASELEKLKSLTLSFVSERKYLNEKEKENEKLIKELTQKLEQNKKMNRDYTRNASNLERNDLRIEDGISSTLPSKESRRKGGLDYLKQVENETRNKSENEKNRNQEDNKVKDLNQEIEKLKTQIKHFESLEEELKKMKSKNNDLQDNYLSEQNKNKLLASQLEEIKLQIKKQKELENGEVEGEDAFLSSKGRHERTKFRGHGSEASVSKHTARELSPQHKRERLRNREFALNNENYSLSNRQVSSPSFTNRRAAKASHMGVSTDSGTQETKKTEDRFVPGSSQSEGKKSREQPSVLSRYPPAAQEHSKAWKGTSKPGTESGLKGKVEKTTRTFSDTTHGSVPSDPLGRADKASDTSSETVFGKRGHVLGNGSQVTQAANSGCSKAIGALASSRRSSSEGLSKGKKAANGLEADNSCPNSKAPVLSKYPYSCRSQENILQGFSTSHKEGVNQPAAVVMEDSSPHEALRCRVIKSSGREKPDSDDDLDIASLVTAKLVNTTITPEPEPKPQPNSREKAKTRGAPRTSLFENDKDAGMENESVKSVRASTNTMELPDTNGAGVKSQRPFSPREALRSRAIIKPVIVDKDVKKIMGGSGTETTLEKQKPVSKPGPNKVTSSITIYPSDSSSPRAAPGEALRERHTSTSNIQVGLAELTSVSNHVSSPFELSIHKHDITLQLAEAERMADGPLKDRPETVVSRSSIIIKPSDPVERNSHAPPAETIRWKSHSAPSEVGFSDARHVTVRNAWKSRRDLKSLEDPPTRIGKNVESTNSNAYTQRSSTDFSELEQPRSCLFEQGTRRVGPSSGDAPEPSSRRTQSSLTVSEVLTRRNRVGDTITVAAWNHSASMEEEGEDCTLSVYRQLHNSLDPSELPGKQGLPESGRVRAEERLRPTRPCAEEN [LUZP1]”: in the series with HeLa Kyoto [1], the “solubility in G1/S (log2)” value was -0.781. The melting temperature in the series on HeLa Kyoto [2] (cell cycle stage: G1/S) came out at 51.8 °C; in the series on HeLa Kyoto [2] (cell cycle stage: mitosis) it was 52.3 °C. In the series on HeLa Kyoto [3], the “solubility change mitosis (log2)” value was found to be 0.14. The thermal stability score is 0.392 with HeLa Kyoto [4] (setting [5]) and 0.722 in the series with HeLa Kyoto [4] (cell cycle stage: mitosis).
